# Laboratory results taken from US20180371086A1.
# Biological target: HIV-1 Env gp120 of virus WITO, on infected cells (HIV-1)
# Experiment: cell-based or functional assay
substance,measurement,value
PGT-121 (antibody),killing EC50; HIV-infected CEM-NKr-CCR5-LucR CD4 T cells; PBMC donor 4176; virus WITO,> 100 µg/mL
same,killing EC50; HIV-infected CEM-NKr-CCR5-LucR CD4 T cells; PBMC donor 4288; virus WITO,> 100 µg/mL
